Patent US20030186841

How the values were obtained:
[1] = tested on: VP16-C7-PR (synthetic/human PR); test: cell_activity; conditions: RU486
[2] = molecular target: VP16-C7-ER (synthetic/mouse ER) (UniProt P19785); test: cell_activity; conditions: 4-OH tamoxifen
[3] = tested on: E2C(Zif) six-finger (synthetic); test: EMSA
[4] = tested on: E2C(Sp1) six-finger (synthetic); test: EMSA
[5] = molecular target: C7-PBD-VP64 (synthetic/human PR) (UniProt P08046); test: cell_activity; conditions: +RU486
[6] = tested on: E2F-PBD-VP64 heterodimer (synthetic/human PR); test: cell_activity; conditions: basal; 54986 with RU486; pcDNA control 17209
E2C-HS2(Zif) (synthetic) = test: EMSA
E2C-HS2(F2) (synthetic) = test: EMSA; conditions: ELISA binding good (Table 11)
E2C-HS2(Sp1) (synthetic) = test: EMSA
[7] = tested on: B3B(Sp1)-VP64 (synthetic); test: cell_activity; conditions: HeLa luciferase
[8] = molecular target: pmGTT (Zif268-C7 finger 2 variant) finger 2 helix -2 to 6 = STSGSLVR in Zif268-C7 (synthetic) (UniProt P08046); test: EMSA; conditions: [none]
[9] = molecular target: pmGGT (Zif268-C7 finger 2 variant) finger 2 helix -2 to 6 = STSGHLVR in Zif268-C7 (synthetic) (UniProt P08046); test: EMSA; conditions: [7-9,26-28]
[10] = molecular target: pmGCT (Zif268-C7 finger 2 variant) finger 2 helix -2 to 6 = STSGELVR in Zif268-C7 (synthetic) (UniProt P08046); test: EMSA; conditions: [none]
[11] = molecular target: pGCA (Zif268-C7 finger 2 variant) finger 2 helix -2 to 6 = SQSGDLRR in Zif268-C7 (synthetic) (UniProt P08046); test: EMSA; conditions: [none]
[12] = molecular target: pGAT (Zif268-C7 finger 2 variant) finger 2 helix -2 to 6 = STSGNLVR in Zif268-C7 (synthetic) (UniProt P08046); test: EMSA; conditions: [none]
[13] = molecular target: pGTA (Zif268-C7 finger 2 variant) finger 2 helix -2 to 6 = SQSSSLVR in Zif268-C7 (synthetic) (UniProt P08046); test: EMSA
[14] = molecular target: pmGGG (Zif268-C7 finger 2 variant) finger 2 helix -2 to 6 = SRSDKLVR in Zif268-C7 (synthetic) (UniProt P08046); test: EMSA; conditions: [7-9,26-28]
[15] = molecular target: pmGTG (Zif268-C7 finger 2 variant) finger 2 helix -2 to 6 = SRSDELVR in Zif268-C7 (synthetic) (UniProt P08046); test: EMSA; conditions: [7-9,26-28]
[16] = molecular target: pGTG (Zif268-C7 finger 2 variant) finger 2 helix -2 to 6 = SRKDSLVR in Zif268-C7 (synthetic) (UniProt P08046); test: EMSA; conditions: [7-9,26-28]
[17] = molecular target: C7 (Zif268-C7) (synthetic) (UniProt P08046); test: EMSA; conditions: [none]
[18] = molecular target: pmGAG (Zif268-C7 finger 2 variant) finger 2 helix -2 to 6 = SRSDNLVR in Zif268-C7 (synthetic) (UniProt P08046); test: EMSA; conditions: [7-9,26-28]
[19] = molecular target: pGGG (Zif268-C7 finger 2 variant) finger 2 helix -2 to 6 = SRSDHLTR in Zif268-C7 (synthetic) (UniProt P08046); test: EMSA; conditions: [7-9,26-28]
[20] = molecular target: pmGCG (Zif268-C7 finger 2 variant) finger 2 helix -2 to 6 = SRSDDLVR in Zif268-C7 (synthetic) (UniProt P08046); test: EMSA
[21] = molecular target: pGTC (Zif268-C7 finger 2 variant) finger 2 helix -2 to 6 = SDPGALVR in Zif268-C7 (synthetic) (UniProt P08046); test: EMSA; conditions: [none]
[22] = molecular target: pmGGC (Zif268-C7 finger 2 variant) finger 2 helix -2 to 6 = SDPGHLVR in Zif268-C7 (synthetic) (UniProt P08046); test: EMSA; conditions: [7-9,26-28]
[23] = molecular target: pmGAC (Zif268-C7 finger 2 variant) finger 2 helix -2 to 6 = SDPGNLVR in Zif268-C7 (synthetic) (UniProt P08046); test: EMSA; conditions: [none]
[24] = molecular target: pGCC (Zif268-C7 finger 2 variant) finger 2 helix -2 to 6 = SDCRDLAR in Zif268-C7 (synthetic) (UniProt P08046); test: EMSA; conditions: [none]
[25] = molecular target: pGGA (Zif268-C7 finger 2 variant) finger 2 helix -2 to 6 = SQRAHLER in Zif268-C7 (synthetic) (UniProt P08046); test: EMSA; conditions: [7-9,26-28]
[26] = molecular target: pmGAA (Zif268-C7 finger 2 variant) finger 2 helix -2 to 6 = SQSSNLVR in Zif268-C7 (synthetic) (UniProt P08046); test: EMSA; conditions: [none]
[27] = tested on: C5(F2) three-finger protein (synthetic); test: EMSA
[28] = tested on: B3C2(Sp1)-VP64 (synthetic); test: cell_activity; conditions: HeLa luciferase
[29] = tested on: B3(F2) three-finger protein (synthetic); test: EMSA
E2C-HS1(F2) (synthetic) = test: EMSA; conditions: ELISA binding good (Table 11)
E2C-HS1(Sp1) (synthetic) = test: EMSA
E2C-HS1(Zif) (synthetic) = test: EMSA
[30] = tested on: E2C(Sp1)-VP16 (synthetic); test: cell_activity; conditions: HeLa luciferase
[31] = tested on: E2C(F2) six-finger (synthetic); test: EMSA
[32] = tested on: E2(F2) three-finger protein (synthetic); test: EMSA

Substance: 10xC7 pGL3prom reporter
- activity (fold induction) [1]: 26
- activity (fold induction) [2]: 43

Substance: AGTCTGAATGCCGCAGTGG (double strand) [e2c-muths1]
- Kd [3]: 200 nM
- Kd [4]: 65 nM

Substance: C7 direct repeat, 0 spacer, TATA reporter
- activity (luciferase units) ([5]; 4081 without): 20000

Substance: C7 direct repeat, 1 bp spacer, TATA reporter
- activity (luciferase units) ([5]; 3383 without): 8200

Substance: C7 direct repeat, 2 bp spacer, TATA reporter
- activity (luciferase units) ([5]; 3417 without): 8170

Substance: C7 direct repeat, 3 bp spacer, TATA reporter
- activity (luciferase units) ([5]; 3269 without): 5140

Substance: C7 direct repeat, 4 bp spacer, TATA reporter
- activity (luciferase units) ([5]; 3966 without): 6940

Substance: C7 direct repeat, 5 bp spacer, TATA reporter
- activity (luciferase units) ([5]; 2597 without): 5460

Substance: C7 everted repeat, 0 spacer, TATA reporter
- activity (luciferase units) ([5]; 8750 without): 17400

Substance: C7 everted repeat, 1 bp spacer, TATA reporter
- activity (luciferase units) ([5]; 6029 without): 13600

Substance: C7 everted repeat, 2 bp spacer, TATA reporter
- activity (luciferase units) ([5]; 7880 without): 20800

Substance: C7 everted repeat, 3 bp spacer, TATA reporter
- activity (luciferase units) ([5]; 9670 without): 21500

Substance: C7 everted repeat, 4 bp spacer, TATA reporter
- activity (luciferase units) ([5]; 6974 without): 8900

Substance: C7 everted repeat, 5 bp spacer, TATA reporter
- activity (luciferase units) ([5]; 6892 without): 13100

Substance: C7 inverted repeat, 0 spacer, TATA reporter
- activity (luciferase units) ([5]; 2921 without): 10800

Substance: C7 inverted repeat, 1 bp spacer, TATA reporter
- activity (luciferase units) ([5]; 4342 without): 9530

Substance: C7 inverted repeat, 2 bp spacer, TATA reporter
- activity (luciferase units) ([5]; 6964 without): 19200

Substance: C7 inverted repeat, 3 bp spacer, TATA reporter
- activity (luciferase units) ([5]; 7132 without): 12800

Substance: C7 inverted repeat, 4 bp spacer, TATA reporter
- activity (luciferase units) ([5]; 3502 without): 8860

Substance: C7 inverted repeat, 5 bp spacer, TATA reporter
- activity (luciferase units) ([5]; 4704 without): 12400

Substance: GAGGAGGGCTGCTTGAGGAAGTA (double strand) [erbB-2 promoter reporter, E2F dimer site]
- activity (luciferase units) [6]: 61400

Substance: GCCGCAGTGG (double strand) [e2c-hs2]
- Kd (E2C-HS2(Zif) (synthetic)): 75 nM
- Kd (E2C-HS2(F2) (synthetic)): 70 nM
- Kd (E2C-HS2(Sp1) (synthetic)): 25 nM

Substance: GCCTGAGAGGGAGCGGTG (double strand) [integrin beta3 promoter reporter, b3b site]
- activity (fold activation) [7]: 12

Substance: GGACGCAACCGCGGGTTTTCCCGCGGTTGCGTCC [F2 site GTT]
- Kd [8]: 5 nM

Substance: GGACGCACCCGCGGGTTTTCCCGCGGGTGCGTCC [F2 site GGT]
- Kd [9]: 15 nM

Substance: GGACGCAGCCGCGGGTTTTCCCGCGGCTGCGTCC [F2 site GCT]
- Kd [10]: 65 nM
- Kd [11]: 10 nM

Substance: GGACGCATCCGCGGGTTTTCCCGCGGATGCGTCC [F2 site GAT]
- Kd [12]: 3 nM

Substance: GGACGCCACCGCGGGTTTTCCCGCGGTGGCGTCC [F2 site GTG]
- Kd ([13]; [7-9,26-28]): > 1000 nM
- Kd [14]: > 1400 nM
- Kd [15]: 15 nM
- Kd [16]: 3 nM

Substance: GGACGCCCACGCGGGTTTTCCCGCGTGGGCGTCC [F2 site TGG]
- Kd [17]: 0.5 nM

Substance: GGACGCCCCCGCGGGTTTTCCCGCGGGGGCGTCC [F2 site GGG]
- Kd [14]: 6 nM
- Kd [18]: 45 nM
- Kd [19]: 0.4 nM

Substance: GGACGCCGCCGCGGGTTTTCCCGCGGCGGCGTCC [F2 site GCG]
- Kd ([20]; [none]): 9 nM

Substance: GGACGCCTCCGCGGGTTTTCCCGCGGAGGCGTCC [F2 site GAG]
- Kd ([20]; [7-9,26-28]): 6 nM
- Kd [15]: 30 nM
- Kd [18]: 1 nM

Substance: GGACGCGACCGCGGGTTTTCCCGCGGTCGCGTCC [F2 site GTC]
- Kd [21]: 40 nM

Substance: GGACGCGCCCGCGGGTTTTCCCGCGGGCGCGTCC [F2 site GGC]
- Kd [9]: > 2400 nM
- Kd [22]: 40 nM

Substance: GGACGCGGCCGCGGGTTTTCCCGCGGCCGCGTCC [F2 site GCC]
- Kd [23]: 90 nM
- Kd [21]: > 4400 nM
- Kd [24]: 80 nM

Substance: GGACGCGTCCGCGGGTTTTCCCGCGGACGCGTCC [F2 site GAC]
- Kd [23]: 3 nM

Substance: GGACGCTACCGCGGGTTTTCCCGCGGTAGCGTCC [F2 site GTA]
- Kd ([13]; [none]): 25 nM

Substance: GGACGCTCCCGCGGGTTTTCCCGCGGGAGCGTCC [F2 site GGA]
- Kd [25]: 3 nM

Substance: GGACGCTGCCGCGGGTTTTCCCGCGGCAGCGTCC [F2 site GCA]
- Kd [11]: 2 nM

Substance: GGACGCTTCCGCGGGTTTTCCCGCGGAAGCGTCC [F2 site GAA]
- Kd [26]: 0.5 nM

Substance: GGAGGCGGGG (double strand) [c5]
- Kd [27]: 30 nM

Substance: GGAGGGGACGCGGTGGGT (double strand) [integrin beta3 promoter reporter, b3c2 site]
- activity (fold activation) [28]: 22

Substance: GGAGGGGAGG (double strand) [b3]
- Kd [29]: 4 nM

Substance: GGGGCCGGAAGTCTGAATG (double strand) [e2c-muths2]
- Kd [3]: 200 nM
- Kd [4]: 100 nM

Substance: GGGGCCGGAG (double strand) [e2c-hs1]
- Kd (E2C-HS1(F2) (synthetic)): 45 nM
- Kd (E2C-HS1(Sp1) (synthetic)): 35 nM
- Kd (E2C-HS1(Zif) (synthetic)): 70 nM

Substance: GGGGCCGGAGCCGCAGTG (double strand) [erbB-2 promoter reporter, E2C site]
- activity (fold activation) [30]: 5

Substance: GGGGCCGGAGCCGCAGTGA (double strand) [e2c-a]
- Kd [3]: 2.3 nM
- Kd [4]: 0.75 nM

Substance: GGGGCCGGAGCCGCAGTGG (double strand) [e2c-g]
- Kd [3]: 1.6 nM
- Kd [31]: 25 nM
- Kd [4]: 0.5 nM

Substance: GGGGGCGAGG (double strand) [e2]
- Kd [32]: 3 nM
